# According to paper PMC7455699, “Rapid high-yield expression and purification of fully post-translationally modified recombinant clusterin and mutants” (Scientific Reports, 2020):
# B1: clusterin purified from human plasma (natural protein)
# chain 1: DQTVSDNELQEMSNQGSKYVNKEIQNAVNGVKQIKTLIEKTNEERKTLLSNLEEAKKKKEDALNETRESETKLKELPGVCNETMMALWEECKPCLKQTCMKFYARVCRSGSGLVGRQLEEFLNQSSPFYFWMNGDRIDSLLENDRQQTHMLDVMQDHFSRASSIIDELFQDRFFTREPQDTYHYLPFSLPHRRPHFFFPKSRIVR
# chain 2: SLMPFSPYEPLNFHAMFQPFLEMIHEAQQAMDIHFHSPAFQHPPTEFIREGDDDRTVCREIRHNSTGCLRMKDQCDKCREILSVDCSTNNPSQAKLRRELDESLQVAERLTRKYNELLKSYQWKMLNTSSLLEQLNEQFNWVSRLANLTQGEDQYYLRVTTVASHTSDSDVPSGVTEVVVKLFDSDPITVTVPVEVSRKNPKFMETVAEKALQEYRKKHREE
# notes: One 'monomer' is a single α-β structure joined by 5 disulfide bonds; The protein is N-glycosylated at six sites; also called pCLU; human plasma CLU
# B2: wild type recombinant human clusterin with a twin Streptag at the C-terminus of the α-chain (natural protein)
# chain 1: B1 chain 2
# chain 2: B1 chain 1
# notes: The tag is separated from the inter-chain cleavage motif by a 4-glycine spacer; About 90-95% of the protein is cleaved into α- and β-chains, and it is glycosylated; also called rCLU-αC-ST; rCLU-ST; source: MEXi293E cells, transfected, secreted into protein-free medium, purified (Streptactin-XT); not shown: twin Streptag, C-terminal, kept
# B3: wild type recombinant human clusterin with the C-tag at the C-terminus of the β-chain (natural protein)
# chain 1: B1 chain 2
# chain 2: B1 chain 1
# notes: The protein is cleaved into α- and β-chains and is glycosylated; also called rCLU-CT; source: MEXi293E cells, transfected, secreted into protein-free medium, purified (Capture Select C-tag column); not shown: C-tag (EPEA), C-terminal, kept
# Target: the molecule itself
# Assay: mass photometry; proteins at 1 nM in PBS (pH 7.4), 10 µl analysed over 10 min; monomer (a single disulphide-linked α-β structure) to dimer (two non-covalently associated α-β structures)
Protein,percent of species in solution that is dimer [%],stoichiometry N
B1,~60,2
B2,~60,2
B3,~60,2
